# Measurements from article PMC4215112 (2014).
# B1: M0418 scFv-Fcε fusion protein [human] / Bet v 1.0101 peptide I56 to D69 [modified: biotin at the N-terminus, before the additional glycine; biotin at the N-terminus, before the additional glycine] [birch] (parent complex)
# chain 1: QVQLVQSGAEVKKPGESLKISCKGSEYSFPNYWIAWVRQMPGKGLEWMGMIYPGDSDTRYSPSFQGQVNISADKSSRTAFLEWSSLKASDSATYFCARLGGQLWNSYYYYYYMDVWGKGTTVTVSSGGGGSGGGGSGGGGSSYELTQPPSASGTPGQRVTISCSGSSSNIGGNTVNWYQQVPGTAPRLLIYKNNQRPSGVPDRFSGSKSGTSASLAISGLRSEDEADYYCEAWDGGLRGGVFGGGTKLTVLGDYKDDDDKAAA
# chain 2: GISFPEGFPFKYVKDG
# Variants of: B1
# Assay: ELISA; parent: 3.4; read off a plot
row,Variant,response
1,chain 2 F8L,~0.2 Absorbance (450 nm)
2,chain 2 F8I,~2.8 Absorbance (450 nm)
3,chain 2 F8S,~0.22 Absorbance (450 nm)
4,chain 2 E6K,~3.4 Absorbance (450 nm)
5,chain 2 D15E,~3.4 Absorbance (450 nm)
6,chain 2 F10V,~3.4 Absorbance (450 nm)

# Second part, the variant after the results:
row,response,Variant
1,~0.17 Absorbance (450 nm),chain 2 P5S
2,~3.4 Absorbance (450 nm),chain 2 S3N
3,~3.4 Absorbance (450 nm),chain 2 S3T
4,~2 Absorbance (450 nm),chain 2 K11E
5,~0.22 Absorbance (450 nm),chain 2 K11R
